Reference: the nanobody polyreactivity screen of Harvey et al. (2022)

Assay: yeast display, Sf9 membrane polyspecificity reagent, FACS + sequencing; frameworks hold sequencing errors
In short: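 Nanobodies came from a synthetic yeast display library in Saccharomyces cerevisiae BJ5465, induced with galactose for 36–48 hours and stained for 1 hour at 4 °C with 10% biotinylated, detergent-solubilized Sf9 membrane reagent. Cells were enriched on streptavidin microbeads and then FACS-sorted, with low and high (top ~1%) gates set on anti-HA fluorescence for expression and streptavidin fluorescence for reagent binding. Each polyreactivity label reflects the gate a clone came from. Genes were amplified by colony PCR, sequenced by MiSeq 2 × 250 and filtered by CDR length.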

| Sequence | polyreactivity (PSR sort gate) |
| --- | --- |
| QVQLVESGGGLVQAGGSLRLSCAASGRTLYLNAMGWYRQAPGKERELVASISRGGGSTYYADSVKGRFTISRDNAKYTVYLQMNSLKPEDTAVYYCAATGAGDYDYWGQGTQVTVSS | low polyreactivity |
| QVQLVESGGGLVQAGGSLRLSCAASGRTLYNYAMGWYRQAPGKERELVAAISSSGSTNYADSVKVRFTISRDNAKNTVYLQMNSLKPEDTAVYYCAKGYPWRYSIMDYWGQGTQVTVSS | low polyreactivity |
| QVQLVESGGGLVQAGGSLRLSCAASGRTLYYYAMGWYRQAPGKERELVARISSRGGSTYYADSVKGRFTISRDNAKNTVYLQMNSLKPEDTAVYYCAADGPGTSEDDYWGQGTQVTVSS | high polyreactivity |
| QVQLVESGGGLVQAGGSLRLSCAASGRTMGYNTMGWYRQAPGKERELVARISYGGSTYYAESVKGRFTISRDNAKNTVYLQMNSLIPEDTAVYYCAAEARSYRYPYNYWGQGTQVTVSS | high polyreactivity |
| QVQLVESGGGLVQAGGSLRLSCAASGRTSAWYAMGWYRQAPGKERDLVATISYTGGRTYYADSVKGRFTISRDNAKNTVYLQMNSLKPEDTAVYYCAKRYTSWFSSKFDYWGQGTQVTVSS | high polyreactivity |
| QVQLVESGGGLVQAGGSLRLSCAASGRTSEIYTMGWYRPAPGKERELVASINTNYADSVKGGFTNSRDNAKNTVYLQMNCLKPEDTAVYYCNADDTIEFNYWGQGTQVTVSW | low polyreactivity |
| QVQLVESGGGLVQAGGSLRLSCAASGRTSGGYAMGWYRQAPGKERELVATITQSGGRTYYADSVKGRFTISRDNAKNTVYLQMNSLKPEDTAVYYCAAQYGRTYYSRREYWGQGTQVTVSS | high polyreactivity |
| QVQLVESGGGLVQAGGSLRLSCAASGRTSGRYAMGWYRQAPGKERELVAGITSSGGSTYYADSVKGRFTISRDNAKNSVYLQMNSLKPEDTAVYYCAKVWGAKGKTYRMYSWGQGTQVTVSS | high polyreactivity |
| QVQLVESGGGLVQAGGSLRLSCAASGRTSIGNAMGWYRQAPGKERELVASISWSGGSTYYADSVKGRFTISRDNAKNTVYLQMNSLKPEDTAVYYCAKTAYFLVFNEHLHKKRYDSWGLGTQVTVSS | low polyreactivity |
| QVQLVESGGGLVQAGGSLRLSCAASGRTSVINAMGWYRQATGKERELVAAITKRGGSTYYADSVKGRFTISRDNAKNTVYLQMNSLKPEDTAVYYCAKYAISIQYDSWGQGTQVTVSS | high polyreactivity |
| QVQLVESGGGLVQAGGSLRLSCAASGRTSVIYAMGWYGPAPGKERELVASIRRGCSTSYADSVKGRFTISRDNAKNTVYLQMNSLKPEDTAVFYCAALLYGYYHVWRNYYWGQGTQVTVSS | high polyreactivity |
| QVQLVESGGGLVQAGGSLRLSCAASGRTSVLYAMGWSRQAPGKEREFVAAITWNSGSTYYADSVKGRFTISRDNAKNTVYLQMISLKPEDTAVYYCNADYYFTSYRSTYDYWGQGTHVTVSS | low polyreactivity |
| QVQLVESGGGLVQAGGSLRLSCAASGRTSVRYAMGWYRQAPGKERELVAAISWSGGSTYYADSVKGRFTISRDNAKNTDYLQMNSLKAEDTAVYYCNAQHARGYYYWGQGTQVTVSS | low polyreactivity |
| QVQLVESGGGLVQAGGSLRLSCAASGRTSWRYAMGWYRQAPGKERELVAAINRGGSTYYADSVMGRFTISRDNAKNTVYLQMNSLKPEDTAVYYFAVDTPLVYYHQQAYVAGEYWGQGTQVTVSS | low polyreactivity |
| QVQLVESGGGLVQAGGSLRLSCAASGRTSWYYAMGWYRQAPGKERELVAAISVRAGSTYYADSVKGRFTISRDNAKNTVYLQMNSLKPEDTAVYYCAREYSPYTSRRDYWGQGTQVTVSS | high polyreactivity |
| QVQLVESGGGLVQAGGSLRLSCAASGRTSYVYAMGWYRQAPGKERELVATISFRGGSTYYADSVKGRFTISRDNAKNTVYLQMNSLKPEDTAVYYCAATTPYYTPRRRNEYWGQGTQVTVSS | high polyreactivity |
| QVQLVESGGGLVQAGGSLRLSCAASGRTTYWYAMGWYRQAPGKERELLADISWSGGSTYYADSVKGRFTISRDNAKNTVYIQMNSLKPEDTAVYYCNAAEQKYSIYYAFDTGPYDYWGQGTQVTVSS | low polyreactivity |
